# Experimental data taken from publication PMC11635053, “Development of a homotrimeric PSMA radioligand based on the NOTI chelating platform” (EJNMMI Radiopharmacy and Chemistry, 2024).
# Columns and labels:
# PSMA = target: T1, PSMA (Homo sapiens, UniProt Q04609); experiment: Competitive binding assay in LNCaP cells with [177Lu]Lu-PSMA-617 as radioligand; details: LNCaP cells, radioligand [177Lu]Lu-PSMA-617, 2 h at r.t.; read-out: IC50 (half maximum competitive inhibitory concentration)
# T1 construct: host or cells: LNCaP
# T1 sequence (Q04609 whole entry): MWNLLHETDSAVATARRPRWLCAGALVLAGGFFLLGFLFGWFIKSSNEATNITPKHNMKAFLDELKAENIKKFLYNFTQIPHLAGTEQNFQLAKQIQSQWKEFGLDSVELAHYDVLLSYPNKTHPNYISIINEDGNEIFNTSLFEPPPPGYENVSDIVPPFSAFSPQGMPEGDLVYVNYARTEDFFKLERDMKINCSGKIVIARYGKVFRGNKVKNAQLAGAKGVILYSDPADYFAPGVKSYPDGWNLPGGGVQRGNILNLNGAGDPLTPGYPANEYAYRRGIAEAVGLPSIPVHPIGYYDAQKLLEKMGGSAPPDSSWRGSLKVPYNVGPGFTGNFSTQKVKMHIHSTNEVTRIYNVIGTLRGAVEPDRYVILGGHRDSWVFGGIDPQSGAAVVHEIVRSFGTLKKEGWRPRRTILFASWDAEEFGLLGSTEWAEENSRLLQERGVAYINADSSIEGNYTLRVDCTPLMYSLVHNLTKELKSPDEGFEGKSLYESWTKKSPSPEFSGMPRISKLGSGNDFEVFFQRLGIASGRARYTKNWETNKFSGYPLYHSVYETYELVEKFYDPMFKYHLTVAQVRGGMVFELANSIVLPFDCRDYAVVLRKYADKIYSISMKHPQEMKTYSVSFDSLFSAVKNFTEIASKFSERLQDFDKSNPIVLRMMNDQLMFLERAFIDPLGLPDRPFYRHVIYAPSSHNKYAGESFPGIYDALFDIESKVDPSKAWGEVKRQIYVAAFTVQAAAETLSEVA
# Method: In order to establish a structure–activity relationship, the binding affinity of the metal-free and ^natGa-complexes of the conjugates 7, 8, and 9 were determined in the PSMA-positive human prostate cancer cell line LNCaP by a competitive binding assay as previously reported using [^177Lu]Lu-PSMA-617 as the radioligand (Stemler et al. [2021]). The conjugate Glu-CO-Lys-Ahx-HBED-CC (PSMA-11) was included as the control.
# The competitive binding assay was carried out using a MultiScreen®HTS Vacuum Manifold system (Merck, Germany) with 96-well filter plates. Serial dilutions of the metal-free conjugates and corresponding ^natGa complexes were prepared to obtain 7 final concentrations ranging from 0 to 1000 nM for each compound. PSMA-11 was also tested as control. Experiments were performed twice in triplicate for each compound. Freshly prepared ^177Lu-labeled PSMA-617 was used as the radioligand. A volume of 1 μL of [^177Lu]Lu-PSMA-617 stock solution (2.83 μM) was added into each tube of the dilution series (radioligand concentration 3.14 nM). For the experiment, 10^5 LNCaP cells were seeded into each well. The final volume of each well was 150 μL (100 μL cells in medium + 50 μL inhibitor in PBS). The experiment was incubated for 2 h at r.t. in a plate shaker. Then, the supernatants were removed by vacuum. Wells were furthermore washed out with ice-cold PBS (3 × 200 μL, pH 7.4). The filters were punched into tubes for the subsequent quantification of the activity in a Gamma-counter. A nonlinear regression algorithm was applied by the software GraphPad Prism to determine the specific inhibitory concentrations of 50% for the tested radiotracers.
# [1] = test system: PSMA-positive LNCaP cells; experiment: Cell uptake / internalization of 68Ga-labeled conjugates in LNCaP cells; type: cell-based, human; details: 1 h incubation, 2.5 pmol per 10^6 cells, 68Ga-labeled
# Method: Next, the cellular uptake of the ^68Ga-labeled conjugates 7, 8, and 9 as well as [^68Ga]Ga-PSMA-11 was determined in PSMA-positive LNCaP cells.
# LNCaP cells were seeded (10^6 cells well^−1) in poly-L-lysine coated 6-well plates 24 h before the experiment. Experiments were performed twice in triplicate for each compound. The radiolabeling solutions of [^68Ga]Ga-7, [^68Ga]Ga-8, [^68Ga]Ga-9, and [^68Ga]Ga-PSMA-11 were first diluted with PBS (pH 7.4) to a concentration of […]. 100 µL of this dilution were added to 3900 µL PBS (pH 7.4) to obtain final stock solutions of each radiolabeled compound (0.025 nmol mL^−1).
# On the day of the experiment, the medium was replaced by fresh preheated medium (1.4 mL w/o blocking, 1.3 mL with blocking) and the cells incubated for 1 h at 37 °C. Next, the blocking solution was added (100 μL, 2500 pmol) to the corresponding wells. Finally, the corresponding radiolabeled conjugate (100 μL, 2.5 pmol) was added to a final assay volume of 1.5 mL well^−1. After 1 h incubation time, the supernatants were removed and the cells were washed carefully with ice-cold PBS buffer (2 × 1 mL, pH 7.4) followed by a subsequent glycine–HCl washing step (50 mM, pH 2.8, 2 × 1 mL well^−1). Cells were incubated with the glycine–HCl solution for 4 min at r.t. Next, corresponding fractions were transferred into counting tubes. Subsequently, the cells were lysed by adding NaOH (2 × 1 mL well^−1, 0.1 M) and the lysed fractions were also transferred into counting tubes. As standards, 100 µL of each radiolabeled conjugate stock solution (0.025 nmol mL^−1, 2.5 pmol) were pipetted into counting tubes containing 2 mL PBS buffer. The activity of the standards, the surface bound fractions and the internalized fractions were measured in a Gamma counter. Means were calculated and subtracted by the background. The percentages of unspecific and specific cell-surface bound and internalized activity were calculated from the standards.
# [2] = test system: patient with metastatic prostate cancer; experiment: Clinical PET/CT imaging; details: human, in vivo
# Method: PET/CT was performed approximately 1, 2, and 3 h after intravenous injection of 107 MBq of [^68Ga]Ga-9 and 1 h after injection of 113 MBq [^68Ga]Ga-PSMA-11 in a patient with metastatic prostate cancer. Whole body imaging extending from vertex to mid-femur was performed in 3D-ToF mode on a Biograph mCT 40 scanner (Siemens Medical Solutions, Knoxville, TN, USA) with an extended field of view of 21.4 cm. PET acquisition time was 3 min bed position^−1. Low-dose CT acquisition was performed for attenuation correction and anatomical localization using an X-ray tube voltage of 120 kV and a modulation of the tube current (maximal tube current: 30 mA; CARE Dose 4D software Siemens Healthineers, Erlangen, Germany) followed by reconstruction with a soft tissue reconstruction kernel (Bf37) to a slice thickness of 5 mm (increment 2–4 mm). PET emission data were additionally corrected for decay, randoms and scatter and reconstructed applying an iterative 3D ordered subset expectation maximization algorithm (3 iterations; 21 subsets) withGaussian filtering to transaxial resolution of 5 mm at full width at half maximum. The matrix size was 200 × 200 mm and the reconstructed pixel size was 5.0 mm.
# human serum proteins = experiment: in vitro; type: in vitro ADME; details: male, Protein binding
# Method: To determine the protein bound fraction of each trimeric radiotracer, 100 μL of the radiolabeling solution of the corresponding ^68Ga-labeled conjugate were added to preheated (37 °C) 1000 μL human serum (male, AB, Sigma Aldrich, USA) in triplicates. Samples were incubated for 1 h at 37 °C. After cooling to r.t., the samples were centrifuged utilizing molecular cutoff (30 kDa) centrifuge tubes at 4 G for 5 min at 4 °C. The filters were additionally rinsed with PBS buffer (2 × 100 μL). The background subtracted activity in the filters and the filtrates were determined in a Gamma counter and the percentage of protein bound fractions were calculated.
smiles,measurement,setting,value
"O=C(O)CC[C@H](NC(=O)N[C@@H](CCCCNC(=O)[C@H](Cc1ccc2ccccc2c1)NC(=O)[C@H]1CC[C@H](CNC(=O)CCCCn2ccnc2CN2CCN(Cc3nccn3CCCCC(=O)NC[C@H]3CC[C@H](C(=O)N[C@@H](Cc4ccc5ccccc5c4)C(=O)NCCCC[C@H](NC(=O)N[C@@H](CCC(=O)O)C(=O)O)C(=O)O)CC3)CCN(Cc3nccn3CCCCC(=O)NC[C@H]3CC[C@H](C(=O)N[C@@H](Cc4ccc5ccccc5c4)C(=O)NCCCC[C@H](NC(=O)N[C@@H](CCC(=O)O)C(=O)O)C(=O)O)CC3)CC2)CC1)C(=O)O)C(=O)O [^nat/68Ga-9, metal not drawn]",IC50,PSMA,4.8 nM
same,Cell-surface bound fraction,[1],1.5 ± 0.5%
same,SUVpeak in the parotid gland,[2],26.7
same,SUVpeak in the submandibular gland,[2],23.5
same,SUVpeak kidneys,[2],33.1
same,"SUVpeak, first target lesion",[2],23.7
same,"SUVpeak, second target lesion",[2],12.8
same,"SUVpeak, third target lesion",[2],10.3
same,fraction unbound at 1 h,human serum proteins,< 0.05
